Reference: patent US20140193420A1 (UNIVERSITY OF TOKYO, published 2014)

Key:
[1] = target: T1, GST-ITM2A-L (GST fusion of the ITM2A extracellular region Tyr75-Glu263, C-terminally His-tagged) (human); experiment: ELISA, coated GST-ITM2A-L
T1 construct: Expressed in E. coli, solubilized and purified in 8 M urea buffer, coated on the ELISA plate
Description: (§1) Each anti-ITM2A monoclonal antibody prepared in Example 2 was evaluated for its binding to GST-ITM2A-L and GST-ITM2A-S by ELISA. First, 100 μL each of GST-ITM2A-L and GST-ITM2A-S solutions having a concentration of 3 μg/mL was added to each well of a 96-well plate for ELISA (Nunc-Immuno Plate, Thermo Fisher Scientific K.K.) to coat the well with GST-ITM2A-L or GST-ITM2A-S. The coated well was blocked with a buffer containing 1% bovine serum albumin. Then, 100 μL each of solutions of the antibodies BE5-1, BE6-1, BE7-1-1, and BE13-1 diluted with the same buffer as above was added to each well. The plate was incubated at room temperature for 1 hour. The positive control used was an anti-His antibody (mouse IgG1, Santa Cruz Biotechnology, Inc.). The negative control used was mouse IgG1 (BD Pharmingen). Each antibody was diluted into 8 dilutions at a common ratio of 3.16 from a concentration of 1 μg/mL. After reaction with a secondary antibody (alkaline phosphatase-goat anti-mouse IgG (Gamma), Invitrogen Corp.), a substrate (phosphatase substrate, Sigma-Aldrich Corp.) was added to each well. Color developed by the reaction solution in each well was determined by the measurement of absorbance at 405 nm to 655 nm.

[2] = target: T2, C-terminally HA-tagged ITM2A expressed on CHO cells (ITM2A_CHO) (human, UniProt O43736 1-263); experiment: flow cytometry on ITM2A_CHO cells
T2 construct: Type II membrane protein on DG44 CHO cells; also called ITM2A-HA; ITM2A-expressing CHO cells
Description: (§2) Each anti-ITM2A monoclonal antibody prepared in Example 2 was assayed for its binding to ITM2A-furin by flow cytometry (FACS). The cells used were ITM2A-furin_CHO prepared in the paragraph (4-1), ITM2A_CHO prepared in the paragraph (2-4), and host cells CHO. These cells were separately suspended in PBS supplemented with 0.2% bovine serum albumin and 0.1% NaN3 (FACS buffer). To each cell suspension, the antibody BE5-1, BE6-1, BE7-1-1, or BE13-1, mouse IgG1, or an anti-HA antibody (clone HA-7, mouse IgG1, Sigma-Aldrich Corp.) was added, and the resulting cell suspension was incubated for 1 hour on ice. Each antibody was diluted into 6 dilutions at a common ratio of 5 from a concentration of 10 μg/mL. After washing of the cells with a FACS buffer, an FITC-labeled anti-mouse IgG antibody (Goat F(ab′)2 Fragment Anti-mouse IgG (Fcγ)-FITC, Beckman Coulter, Inc.) was added thereto as a secondary antibody. The resulting cell suspension was incubated for 1 hour on ice. The cells were washed with a FACS buffer, then suspended in a FACS buffer supplemented with 10 μg/mL propidium iodide (PI, Sigma-Aldrich Corp.), and subjected to assay using a flow cytometer. The assay data was analyzed using CELLQuest software (Becton, Dickinson and Company) to evaluate a PI-negative live cell population.

[3] = target: T3, C-terminally HA-tagged mouse ITM2A expressed on CHO cells (mITM2A_CHO) (mouse, UniProt Q61500 1-263); experiment: flow cytometry on mITM2A_CHO cells
T3 construct: also called mITM2A-HA; mouse ITM2A-expressing CHO cells

[4] = target: T4, GST-ITM2A-S (GST fusion of ITM2A Tyr75-Lys182, C-terminally His-tagged) (human); experiment: ELISA, coated GST-ITM2A-S
T4 construct: Expressed in E. coli, solubilized and purified in 8 M urea buffer, coated on the ELISA plate
Description: as §1

[5] = target: T5, ITM2A-furin (Met1 to Leu227 of ITM2A with an HA tag added downstream) expressed on CHO cells (ITM2A-furin_CHO) (human, UniProt O43736 1-227); experiment: flow cytometry on ITM2A-furin_CHO cells
T5 construct: C-terminally truncated ITM2A on DG44 CHO cells; also called ITM2A-furin-HA; ITM2A-furin-expressing CHO cells
Description: as §2

[6] = target: T2, C-terminally HA-tagged ITM2A expressed …; experiment: flow cytometry screening of hybridoma supernatants on ITM2A_CHO against parent CHO cells
[7] = target: T6, human ITM2A protein (endogenous, on human cancer cell lines) (human, UniProt O43736 1-263); experiment: flow cytometry on human cancer cell lines, BE6-1 at 10 µg/mL, mouse IgG1 as negative control
T6 construct: also called NP-004858.1
Description: as §2
The expression of ITM2A was assayed in human cancer cell lines by FACS. […]

T2 sequence (O43736 other isoform, or with tags, fused parts or gaps): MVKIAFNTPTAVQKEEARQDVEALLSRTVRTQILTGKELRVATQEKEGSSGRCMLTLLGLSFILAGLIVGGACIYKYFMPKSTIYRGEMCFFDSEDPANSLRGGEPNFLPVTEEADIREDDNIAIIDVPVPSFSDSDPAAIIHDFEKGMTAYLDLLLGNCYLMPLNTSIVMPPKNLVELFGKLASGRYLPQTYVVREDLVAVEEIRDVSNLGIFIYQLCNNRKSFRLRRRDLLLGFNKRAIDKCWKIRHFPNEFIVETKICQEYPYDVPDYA
T3 sequence (Q61500 other isoform, or with tags, fused parts or gaps): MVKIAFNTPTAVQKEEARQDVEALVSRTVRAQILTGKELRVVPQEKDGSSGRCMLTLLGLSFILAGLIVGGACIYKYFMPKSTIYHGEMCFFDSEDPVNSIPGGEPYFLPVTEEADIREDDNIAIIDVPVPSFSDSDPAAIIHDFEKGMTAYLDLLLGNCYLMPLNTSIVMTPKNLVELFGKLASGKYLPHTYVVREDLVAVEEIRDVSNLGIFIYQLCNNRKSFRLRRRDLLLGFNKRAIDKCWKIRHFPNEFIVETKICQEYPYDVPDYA
T1 sequence (chain, as listed by the source limits assumed): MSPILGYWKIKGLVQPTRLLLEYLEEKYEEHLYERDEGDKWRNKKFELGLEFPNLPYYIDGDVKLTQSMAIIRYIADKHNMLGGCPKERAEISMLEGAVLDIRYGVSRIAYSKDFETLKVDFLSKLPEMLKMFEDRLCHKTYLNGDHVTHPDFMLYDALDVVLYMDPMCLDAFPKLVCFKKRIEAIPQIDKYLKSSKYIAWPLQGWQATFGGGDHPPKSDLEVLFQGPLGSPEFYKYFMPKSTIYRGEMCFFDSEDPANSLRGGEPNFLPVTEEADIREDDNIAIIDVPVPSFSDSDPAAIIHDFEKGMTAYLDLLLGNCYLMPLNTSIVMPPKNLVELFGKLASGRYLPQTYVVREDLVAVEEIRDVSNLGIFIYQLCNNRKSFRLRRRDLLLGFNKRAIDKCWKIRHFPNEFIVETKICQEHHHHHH
T4 sequence (chain, as listed by the source limits assumed): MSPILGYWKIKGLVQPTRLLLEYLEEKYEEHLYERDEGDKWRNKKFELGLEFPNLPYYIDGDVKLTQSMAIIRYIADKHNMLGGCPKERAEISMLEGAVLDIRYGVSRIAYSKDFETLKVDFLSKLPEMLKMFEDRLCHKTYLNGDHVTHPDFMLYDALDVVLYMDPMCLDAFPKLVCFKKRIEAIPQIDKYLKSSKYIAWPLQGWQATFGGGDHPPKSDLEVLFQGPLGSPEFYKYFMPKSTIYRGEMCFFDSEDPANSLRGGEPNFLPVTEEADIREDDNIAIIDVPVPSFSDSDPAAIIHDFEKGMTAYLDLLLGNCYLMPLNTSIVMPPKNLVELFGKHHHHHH
T5 sequence (O43736 other isoform, or with tags, fused parts or gaps limits assumed): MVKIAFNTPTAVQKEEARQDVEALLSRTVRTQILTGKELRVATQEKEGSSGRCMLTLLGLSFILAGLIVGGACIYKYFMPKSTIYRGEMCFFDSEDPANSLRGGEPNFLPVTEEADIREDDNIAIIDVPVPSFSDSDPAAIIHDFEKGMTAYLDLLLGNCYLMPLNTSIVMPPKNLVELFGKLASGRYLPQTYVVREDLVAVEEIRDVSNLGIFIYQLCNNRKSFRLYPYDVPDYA
T6 sequence (O43736 whole entry): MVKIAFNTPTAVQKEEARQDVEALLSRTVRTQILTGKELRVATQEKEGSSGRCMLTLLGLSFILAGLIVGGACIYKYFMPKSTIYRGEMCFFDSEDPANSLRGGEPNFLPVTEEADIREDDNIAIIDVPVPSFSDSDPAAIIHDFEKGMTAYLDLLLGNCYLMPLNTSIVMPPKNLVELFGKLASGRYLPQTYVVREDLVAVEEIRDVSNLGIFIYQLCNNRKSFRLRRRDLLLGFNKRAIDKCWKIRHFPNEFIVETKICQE

B1: anti-ITM2A monoclonal antibody BE13-1 (antibody, mouse IgG1, V domains shown)
VH: EVQLQQSGPELVKPGASVRMSCKASGYTFTDYYMKWVKQSHGKSLEWIGDINPNNGGLSYNQKFKGKATLTVDKSSSTAYMQLASLTSEDSAVYYCAIWSGAYWGQGTLVTVSA
VL: not shown
- binding result [1]: binds
- binding result [2]: binds
- binding result [3]: binds

B2: anti-ITM2A monoclonal antibody BE5-1 (antibody, mouse IgG1, V domains shown)
VH: QVQLVETGGGLVRPGNSLKLSCVTSGFTFSDYRMHWLRQSPGKRLEWIAVITGKSDNYGASYAESVKGRFTISRDDSKSSVYLQMNRLREEDTATYYCSRRDYWGQGTSVTVSS
VL: DIVMTQAAPSVPVTPGESVSISCRSSKSLLHSNGNTYLYWFLQRPGQSPQLLIYRMSNLAPGVPDRFSGSGSGTAFTLRISRVEAEDVGVYYCMQHLEYPFTFGAGTKLELK
- binding result [1]: binds
- binding result [4]: binds
- binding result [3]: binds
- binding result [5]: binds
- binding result [6]: binds

B3: anti-ITM2A monoclonal antibody BE6-1 (antibody, mouse IgG1, V domains shown)
VH: EVQLQQSGPELVKPGASVKISCKTSGYTFTEYTMHWVKQSHGKSLEWIGGINPNNGDTSYNQKFKGKATLTVDKSSITAYMELRSLTSEDSAVYYCARGPFAYWGQGTLVTVST
VL: DVVMTQTPLSLPVSLGDQASISCRSSQSLVHSNGNTYFHWYLQKPGQSPKFLIYKVSNRFFGVPDRFSGSGSGTDFTLKISRVEAEDLGVYFCSQTTHFPFTFGSGTKLEIK
- binding result [1]: binds
- binding result [4]: binds
- binding result [2]: binds
- binding result [3]: no binding
- binding result [5]: binds
- binding result [7]: binds
